Reference: publication PMC3562352
Where two headings read alike, the source gives them in different places.

Assays:
Experiment in all cases: fluorescence anisotropy
MntR E11K [1] = molecular target: T1, MntR E11K (Bacillus subtilis, UniProt P54512 1-142, E11K)
T1 sequence: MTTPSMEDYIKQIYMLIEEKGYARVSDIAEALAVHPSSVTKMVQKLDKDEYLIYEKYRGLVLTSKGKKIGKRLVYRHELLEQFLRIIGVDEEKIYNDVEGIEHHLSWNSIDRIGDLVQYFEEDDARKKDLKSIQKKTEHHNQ

MntR wild-type [2] = molecular target: T2, MntR wild-type (Bacillus subtilis, UniProt P54512 1-142)
T2 sequence: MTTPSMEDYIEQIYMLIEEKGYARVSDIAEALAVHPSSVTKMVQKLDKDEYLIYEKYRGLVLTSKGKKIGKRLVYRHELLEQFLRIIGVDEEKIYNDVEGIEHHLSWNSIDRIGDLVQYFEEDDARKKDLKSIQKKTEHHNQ

MntR E11K [3] = molecular target: T1, MntR E11K; remark: listed apart in the source
MntR wild-type [4] = molecular target: T2, MntR wild-type; remark: listed apart in the source

B1: mntH operator 21 bp (dsDNA)
DNA 1: GAGTTTCCTTAAGGCAAATTG
DNA 2: CAATTTGCCTTAAGGAAACTC
Kd (MntR E11K [1]): 2.4 ± 0.1 nM
Kd (MntR wild-type [2]): 6.5 ± 0.5 nM
Kd (MntR E11K [3]): 6.5 ± 1.3 nM
Kd (MntR wild-type [4]): 5.6 ± 0.8 nM
